Source: article PMC4571291 (2015)

B1: TL2_(ABS2) (domain or fragment)
chain: VIKPTQYKPVPDEEPNSTDVEETLERIKNNDPKLEEVNLNNIRNIPIPTLKAYAEALKENSYVKKFSLANTHADDSAAMAIAEMLKVNEHITNVNVESNFITGKGILAIMRALQHNTVLTELRFHNQRHIMGSQVEMEIVKLLKENTTLLRLGYHFELPGPRMSMTSILTRNMDKQRQKRLQEQKQQE
B2: TL1_(ABS2) (domain or fragment)
chain: VIKPTQYKPVPDEEPNSTDVEETLERIKNNDPKLEEVNLNNIRNIPIPTLKAYAEALKENSYVKKFALANTRADDHVAFAIAIMLKANKTITSLNLDSNHITGKGILAIFRALLQNNTLTELRFHNQRHICGGKTEMEIAKLLKENTTLLKLGYHFELAGPRMTVTNLLSRNMDKQRQKRLQEQRQAQ
B3: Lmod2_(ABS2) (domain or fragment)
chain: NGRNTESPAAIHPCGNPTVIEDALDKIKSNDPDTTEVNLNNIENITTQTLTRFAEALKDNTVVKTFSLANTHADDSAAMAIAEMLKVNEHITNVNVESNFITGKGILAIMRALQHNTVLTELRFHNQRHIMGSQVEMEIVKLLKENTTLLRLGYHFELPGPRMSMTSILTRNMDKQRQKRLQEQKQQE
B4: Tmod1_(ABS1) (domain or fragment)
chain: MSYRRELEKYRDLDEDEILGALTEEELRTLENELDELDPDNALLPAGLRQKDQTTKAPTGPFKREELLDHLEKQAKEFKDREDLVPYTGEKRGKVWVPKQKPLDPVLESVTLEPELEEALANASDAELCDIAAILGMHTLMSNQQYYQALSSSSIMNKEGLNSVIKPTQYKPVPDEEPNSTDVEETLERIKNNDPKLEEVNLNNIRNIPIPTLKAYAEALKENSYVKKFSIVGTRSNDPVAYALAEMLKENKVLKTLNVESNFISGAGILRLVEALPYNTSLVEMKIDNQSQPLGNKVEMEIVSMLEKNATLLKFGYHFTQQGPRLRASNAMMNNNDLVRKRRLADLTGPIIPKCRSGV

Key:
actin [1] = target: T1, actin (UniProt P68135 1-377); experiment: ITC; first site (KD1)
actin [2] = target: T1, actin; experiment: ITC; second site (KD2)
actin [3] = target: T1, actin; experiment: ITC

Row | Binder | Kd (actin [1]) [nM] | Kd (actin [2]) [nM] | Kd (actin [3]) [nM]
1 | B1 | 154 | 600 | 
2 | B2 |  | 130 | 
3 | B3 |  | 1700 | 
4 | B4 |  |  | 15000
